The experiment concerns the target JNK-interacting protein 1 (JIP-1) (UniProt Q9WVI9). Put plainly: IP-FCM of lysates from OT-I T cells stimulated with OVA-Tet/α-CD28 in the presence of Tat-POSH vs Tat-cont.; competitor for POSH.

Chain of JNK-interacting protein 1 (JIP-1) (Q9WVI9 whole entry): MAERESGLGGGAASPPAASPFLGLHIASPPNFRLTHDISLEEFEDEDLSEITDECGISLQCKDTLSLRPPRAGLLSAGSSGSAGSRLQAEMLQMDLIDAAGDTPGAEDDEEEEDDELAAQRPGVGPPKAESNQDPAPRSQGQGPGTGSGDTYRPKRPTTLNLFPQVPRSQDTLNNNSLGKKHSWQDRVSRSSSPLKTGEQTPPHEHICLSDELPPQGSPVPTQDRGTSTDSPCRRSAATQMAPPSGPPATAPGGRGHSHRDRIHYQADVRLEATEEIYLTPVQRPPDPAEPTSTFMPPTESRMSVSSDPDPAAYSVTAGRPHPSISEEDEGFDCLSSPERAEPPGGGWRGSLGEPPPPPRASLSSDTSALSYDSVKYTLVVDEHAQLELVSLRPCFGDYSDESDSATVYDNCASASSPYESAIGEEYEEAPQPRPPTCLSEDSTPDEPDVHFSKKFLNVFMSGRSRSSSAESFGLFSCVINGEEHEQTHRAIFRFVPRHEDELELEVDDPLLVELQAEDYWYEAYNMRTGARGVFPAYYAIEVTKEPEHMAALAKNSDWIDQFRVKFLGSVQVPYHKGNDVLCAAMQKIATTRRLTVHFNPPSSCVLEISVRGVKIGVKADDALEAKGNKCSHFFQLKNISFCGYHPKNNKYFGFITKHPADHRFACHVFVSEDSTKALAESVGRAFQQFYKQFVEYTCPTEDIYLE

Regarding “Tat-POSH SH3.3 (cell-permeable peptide containing the HIV Tat protein transduction domain fused to the SH3.3 of POSH)”, the percent of POSH/JIP-1 complexes disrupted worked out at 30%.
